Assays:
[1] = biological target: chemokine receptor 4 (CXCR4) (human (endogenous in MDAMB231)) (UniProt P61073); assay: flow cytometry on cells
CXCR4 = CXCR4 (Homo sapiens, UniProt P61073); assay: Competition binding against 250 nM of peptide 3, flow cytometry; conditions: ratio of KD values, higher affinity of 1
Chain of CXCR4 (P61073 whole entry): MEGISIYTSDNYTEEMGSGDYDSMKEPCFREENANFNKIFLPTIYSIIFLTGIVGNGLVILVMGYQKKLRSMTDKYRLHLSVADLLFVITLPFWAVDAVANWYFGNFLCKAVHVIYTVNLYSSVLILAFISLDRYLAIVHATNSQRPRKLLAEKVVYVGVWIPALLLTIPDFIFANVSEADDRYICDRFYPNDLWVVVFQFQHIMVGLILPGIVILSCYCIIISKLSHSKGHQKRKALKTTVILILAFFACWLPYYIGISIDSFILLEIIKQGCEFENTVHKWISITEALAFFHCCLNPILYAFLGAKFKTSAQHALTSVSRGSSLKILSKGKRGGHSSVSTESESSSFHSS

Chain of chemokine receptor 4 (CXCR4) (human (endogenous in MDAMB231)) (P61073 whole entry): as above

| Kd [1] [nM] | MFIR (mean fluorescence intensity ratio), MDAMB231^CXCR4+ cells [1] | receptor affinity relative to derivatives 3 and 4 (CXCR4) | Substance |
| --- | --- | --- | --- |
| 177 | 56.7 | – | Ac-TZ14011 labeled with the MSAP reagent, indium-labeled (peptide 4) |
| – | – | approximately 20 times | Ac-TZ14011 [compound 1] |
| 187 | 45.3 | – | Ac-TZ14011 labeled with the MSAP reagent (peptide 3) |

From publication PMC3711080 (Bioconjugate chemistry, 2011)
